Values quoted from earlier work as cited in PMC7925366.
Where “and” joins values, the source holds several entries; their conditions need not be identical. Equal entries are not always repeated. Where two headings read alike, the source gives them in different places.

Tests used:
[1] = target: vimentin coils 1A and 1B (Homo sapiens) (UniProt P08670)
[2] = target: vimentin coils 1A and 1B (Homo sapiens) (UniProt P08670); experiment: MST

Chain of UniProt P08670 (P08670 96-245): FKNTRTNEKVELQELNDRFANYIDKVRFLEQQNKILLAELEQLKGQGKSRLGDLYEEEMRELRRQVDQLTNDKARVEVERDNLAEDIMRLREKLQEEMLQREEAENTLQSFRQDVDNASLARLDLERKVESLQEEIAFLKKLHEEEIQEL

Kd [1] [µM]	Kd [2]	Substance
19	–	envoplakin PRD (from UniProt Q92817)
–	31 µM and 70 µM	periplakin linker domain (from UniProt O60437)
